{
  "source": "patent US8273705B2",
  "about": "“Conversion of apoptotic proteins” (The Burnham Institute, priority 2002, dated 2012)",
  "key": {"LNCaP cells": {"test_system": "LNCaP cells", "test": "Colocalization of transfected GFP-TR3/ΔDBD and Bcl-2 in LNCaP cells", "format": "cell-based", "conditions": "cotransfected with Bcl-2, 20 h", "protocol": "Next, the interaction of transfected TR3 and Bcl-2 was analyzed."}, "Bcl-2/1-80": {"target": "T1, Bcl-2/1-80 (Homo sapiens, UniProt P10415)", "T1 construct": "a fragment of Bcl-2 comprising the first 80 amino acids (Bcl-2/1-80); expressed in transfected cells; host or cells: HEK293T", "T1 sequence (P10415 1-80)": "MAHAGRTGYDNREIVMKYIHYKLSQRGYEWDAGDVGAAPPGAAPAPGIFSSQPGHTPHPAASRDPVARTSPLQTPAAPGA", "test": "Co-IP assay with Bcl-2/1-80", "format": "binding", "protocol": "(§1) Therefore, TR3/ΔDBD was analyzed as to its interaction with a fragment of Bcl-2 comprising the first 80 amino acids (Bcl-2/1-80). […] The Bcl-2/1-80 fragment encompasses the N-terminal BH4 domain followed by an unstructured loop domain of approximately 50 amino acids length. To determine whether the BH4 domain or the loop region was responsible for binding to TR3/ΔDBD, TR3/ΔDBD interaction with Bcl-2 mutants lacking the BH4 domain (Bcl-2/ΔBH4) or the loop region (Bcl-2/ΔLoop) was analyzed. […] Thus, the loop region of Bcl-2 is involved in binding to TR3.\nDeletion of the loop region of Bcl-2 completely blocks paclitaxel-induced apoptosis (Rakesh et al. 1999 PNAS USA 96:3775-3780). To further investigate whether the loop region of Bcl-2 is responsible for its interaction with TR3/ΔDBD, TR3/ΔDBD was co-transfected with the first 80-residue fragment of Bcl-2 including the loop region and BH4 domain."}, "Bcl-2/ΔBH4": {"target": "T2, Bcl-2/ΔBH4 (Homo sapiens, UniProt P10415, DEL7-30)", "T2 construct": "expressed in transfected cells; host or cells: HEK293T", "T2 sequence (P10415 with tags, fused parts or gaps DEL7-30)": "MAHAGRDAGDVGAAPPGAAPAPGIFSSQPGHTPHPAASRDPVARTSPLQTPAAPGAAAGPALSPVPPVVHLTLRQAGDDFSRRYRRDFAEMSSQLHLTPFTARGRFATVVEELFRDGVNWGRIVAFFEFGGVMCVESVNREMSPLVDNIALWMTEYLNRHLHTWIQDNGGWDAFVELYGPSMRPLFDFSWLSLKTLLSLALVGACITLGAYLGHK", "test": "Co-IP assay with Bcl-2/ΔBH4", "format": "binding", "protocol": "as §1"}, "Bcl-2": {"target": "T3, Bcl-2 (Homo sapiens, UniProt P10415)", "T3 construct": "expressed in transfected cells; host or cells: HEK293T", "T3 sequence (P10415 whole entry)": "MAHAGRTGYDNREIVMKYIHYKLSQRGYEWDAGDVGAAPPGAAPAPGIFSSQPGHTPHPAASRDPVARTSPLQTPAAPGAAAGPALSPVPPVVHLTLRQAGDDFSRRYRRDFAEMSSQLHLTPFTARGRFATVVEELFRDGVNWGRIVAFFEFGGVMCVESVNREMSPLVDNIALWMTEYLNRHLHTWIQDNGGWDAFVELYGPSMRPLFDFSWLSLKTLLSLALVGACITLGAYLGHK", "test": "Bcl-2 conformation by immunoprecipitation with epitope-specific antibodies", "format": "binding", "source_text": "Second, the effects of TR3/ΔDBD on Bcl-2 conformation were studied by immunoprecipitation assays."}},
  "data": [
    {"molecule": "TR3/ΔDBD: TR3 mutant with the DNA binding domain removed; used as GFP fusion (protein, left off: large carriers; small tags and cut ends, used as GFP fusion) MPCIQAQYGTPAPSPGPRDHLASDPLTPEFIKPTMDLASPEAAPAAPTALPSFSTFMDGYTGEFDTFLYQLPGTVQPCSSASSSASSTSSSSATSPASASFKFEDFQVYGCYPGPLSGPVDEALSSSGSDYYGSPCSAPSPSTPSFQPPQLSPWDGSFGHFSPSQTYLVLHRLQCARGFGDWIDSILAFSRSLHSLLVDVPAFACLSALVLITDRHGLQEPRRVEELQNRIASCLKEHVAAVAGEPQPASCLSRLLGKLPELRTLCTQGLQRIFYLKLEDLVPPPPIIDKIFMDTLPF", "values": [
      {"measurement": "transfected cells exhibiting colocalization with Bcl-2", "setting": "LNCaP cells", "result": "Approximately 30%"},
      {"measurement": "interaction with Bcl-2/1-80 (Co-IP)", "setting": "Bcl-2/1-80", "result": "strongly interacted"},
      {"measurement": "interaction with Bcl-2/ΔBH4 (Co-IP)", "setting": "Bcl-2/ΔBH4", "result": "retained the ability to interact"},
      {"measurement": "binding of Bcl-2 by antibody against BH3-binding pocket", "setting": "Bcl-2", "result": "reduced binding"},
      {"measurement": "binding of Bcl-2 by antibody against BH3 domain", "setting": "Bcl-2", "result": "enhancing binding"},
      {"measurement": "immunoprecipitation efficiency of antibody against whole Bcl-2 protein", "setting": "Bcl-2", "result": "did not affect"}
    ]}
  ]
}
